Test results reported in paper PMC3800017.

B1: Insulin E1 (dsDNA)
DNA 1: AGCCATCTGCCGACCC
DNA 2: GGGTCGGCAGATGGCT
B2: Insulin A3 (dsDNA)
DNA 1: AGACTCTAATGACCCG
DNA 2: CGGGTCATTAGAGTCT
B3: IAPP A2 (dsDNA)
DNA 1: ATGAGTTAATGTAATA
DNA 2: TATTACATTAACTCAT
B4: Insulin A1 (dsDNA)
DNA 1: AGGCCCTAATGGGCCA
DNA 2: TGGCCCATTAGGGCCT
B5: IAPP A1 (dsDNA)
DNA 1: GGAAATTAATGACAGA
DNA 2: TCTGTCATTAATTTCC

The binders below were run against Pdx1 homeodomain (Pdx1-HD) (Homo sapiens, UniProt P52945 146-206) (assay: ITC).
Chain of Pdx1 homeodomain (Pdx1-HD) (P52945 146-206): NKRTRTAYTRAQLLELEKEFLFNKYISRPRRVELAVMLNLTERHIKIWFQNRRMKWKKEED
In the case of B1, the Kd is reported as 1300 ± 300 nM.
B2 gave a Kd of 4 ± 1 nM.
Binder B3 has a Kd of 27 ± 7 nM.
Binder B4 has a Kd of 7 ± 2 nM.
Work on B5 yielded a Kd of 22 ± 5 nM.
